Experimental data taken from patent US6746859.

Experiments:
[1] = target: T1, E. coli thioredoxin/human IL-11 fusion protein with enterokinase cleavage spacer (UniProt P20809)
T1 sequence: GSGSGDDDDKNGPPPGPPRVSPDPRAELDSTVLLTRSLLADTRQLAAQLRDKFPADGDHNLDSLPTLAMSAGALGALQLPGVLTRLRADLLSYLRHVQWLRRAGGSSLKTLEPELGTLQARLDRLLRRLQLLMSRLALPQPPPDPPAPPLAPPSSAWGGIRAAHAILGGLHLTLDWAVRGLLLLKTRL

[2] = test system: T2, Gly-(Asp4)-Lys-βNA fluorogenic enterokinase substrate
T2 sequence: GDDDDK

bovine-derived enterokinase holoenzyme (heavy and light chains)
EFFICIENCY OF CLEAVAGE (relative molar activities) (relative molar activity) [1]: 1
EFFICIENCY OF CLEAVAGE (relative molar activities) (relative molar activity) [2]: 1
EFFICIENCY OF CLEAVAGE (relative molar activities) (relative molar activity) (Trypsinogen): 100
